Assay results taken from patent US10308606B2, “PSMA-targeted NIR dyes and their uses” (On Target Laboratories, LLC, priority 2016, dated 2019).
pKd: −log10 of the molar value.

How the values were obtained:
[1] = system: 22Rv1 human prostate tumor xenograft; assay: Time dependent whole body imaging; type: in vivo, mouse; conditions: 10 nmol, FIG. 6
Experimental: FIGS. 6A-6F: Overlay of whole body or half body fluorescence image over white light images after adjusting the threshold. 22Rv1 human prostate tumor xenograft bearing mouse was injected with 10 nmol of 1: OTL78 and imaged with IVIS imager (ex=745 nm, em=ICG, exposure time=1 s) at different time intervals.
Settings for imaging:—lamp level: medium; excitation: 745 nm; emission: ICG(830 nm); epi illumination; binning: 4 (M), FOV=12.5; f-stop=2; acquisition time=1 s. For time dependent studies, animals were imaged under anesthesia using isoflurane. Whole body imaging (intact tumor) experiments was then performed using a Caliper IVIS Lumina II Imaging Station with Living Image 4.0 software (PerkinElmer Inc, MA).

PSMA = target: T1, PSMA (Homo sapiens, UniProt Q04609); assay: In vitro binding: relative binding affinity versus DUPA-FITC on PSMA-positive 22Rv1 cells; conditions: 1 h at 37° C., 100 nM DUPA-FITC, FIG. 2, read-out: dissociation constant (KD)
T1 construct: PSMA-positive 22Rv1 human prostate cancer cells; endogenous in cells; host or cells: 22Rv1 human prostate cancer cells
T1 sequence (Q04609 whole entry): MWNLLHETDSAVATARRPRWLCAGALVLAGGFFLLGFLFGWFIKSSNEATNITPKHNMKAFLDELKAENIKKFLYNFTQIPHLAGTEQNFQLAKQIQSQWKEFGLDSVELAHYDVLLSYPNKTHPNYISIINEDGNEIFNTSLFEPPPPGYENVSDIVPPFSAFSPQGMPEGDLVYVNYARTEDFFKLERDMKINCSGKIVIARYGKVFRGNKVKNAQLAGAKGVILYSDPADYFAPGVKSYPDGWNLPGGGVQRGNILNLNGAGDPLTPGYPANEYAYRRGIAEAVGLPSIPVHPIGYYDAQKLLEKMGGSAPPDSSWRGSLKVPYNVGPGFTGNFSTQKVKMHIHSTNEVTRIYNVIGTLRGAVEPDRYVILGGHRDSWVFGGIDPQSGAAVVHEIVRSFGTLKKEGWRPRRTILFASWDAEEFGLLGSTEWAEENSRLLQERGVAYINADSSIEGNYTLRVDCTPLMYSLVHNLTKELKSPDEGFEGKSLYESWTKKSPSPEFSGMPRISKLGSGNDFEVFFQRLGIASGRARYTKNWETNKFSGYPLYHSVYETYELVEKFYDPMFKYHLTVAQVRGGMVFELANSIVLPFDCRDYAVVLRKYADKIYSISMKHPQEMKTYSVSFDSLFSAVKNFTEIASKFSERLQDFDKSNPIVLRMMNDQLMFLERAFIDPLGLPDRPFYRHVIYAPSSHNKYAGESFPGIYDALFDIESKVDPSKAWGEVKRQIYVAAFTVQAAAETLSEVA
Experimental: FIG. 2 illustrates the relative binding affinity of 1: OTL78 with respect to DUPA-FITC (14). PSMA-positive 22Rv1 human prostate cancer cells were incubated for 1 h at 37° C. in the presence of 100 nM DUPA-FITC with increasing concentrations of 1. Media was then removed, washed with fresh media three times, and replaced with PBS. Cell bound fluorescence was assayed as using flow cytometry.
General Methods: 22Rv1 cells (a human prostate cancer cells) were grown as a monolayer using RPMI medium (Gibco, NY) 10% heat-inactivated fetal bovine serum (Atlanta Biological, GA) and 1% penicillin streptomycin (Gibco, NY) in a 5% carbon dioxide: 95% air-humidified atmosphere at 37° C. for at least six passages before they were used for the assays.
In vitro binding and specificity: 22Rv1 cells were seeded into a T75 flask and allowed to form a monolayer over 24 h. After trypsin digestion, release cells were transferred into centrifuge tubes (1×10^6 cells/tube) and centrifuged. […] After rinsing with fresh medium (2×1.0 mL) and PBS (1×1.0 mL), cells were resuspended in PBS (1.0 mL) and cell bound fluorescence was analyzed (100,000 cells/sample) using a fluorometer (Cary, Agilent). The relative binding affinities were calculated using a plot of % cell bound fluorescence versus the log concentration of the test article using GraphPad Prism 4.

Row | Compound | time remained in the tumor [1] | time to saturation in PSMA-positive tumors [1] [h] | pKd (PSMA)
1 | CC1(C)C(/C=C/C2=C(Oc3ccc(C[C@H](NC(=O)[C@H](Cc4ccccc4)NC(=O)CCOCCOCCNC(=O)CC[C@H](NC(=O)N[C@@H](CCC(=O)O)C(=O)O)C(=O)O)C(=O)O)cc3)C(=C/C=C3/N(CCCCS(=O)(=O)O)c4ccc(S(=O)(=O)O)cc4C3(C)C)/CCC2)=[N+](CCCCS(=O)(=O)[O-])c2ccc(S(=O)(=O)O)cc21 [1: OTL78, DUPA_PEG2_Phe_Tyr-50456] | over 24 h | ≤ 2 | –
2 | DUPA_PEG2—Phe_Tyr-S0456 [compound 5] | – | – | 9.00
